What all share (details): remark: other sources report otherwise
Test [1] concerns the target COVID S1 RBD Fc fusion (Antigen 1) (SARS-CoV-2), P0DTC2. Put plainly: phage ELISA.
The target in test [2] is SARS-CoV-2 S protein trimer (SARS-CoV-2), P0DTC2. The test can be described thus: column DC/S-T (format not explained).
The target is the same in test [3]. The test can be described thus: ELISA on coated S trimer; quantity not named. On the technique in general: An ELISA detects its analyte on a solid surface through an enzyme-linked reagent.
The target is the same in test [4]. The test can be described thus: column DB/S-T (format not explained).
Test [5] has the same target. Put plainly: column Fc/S-T (format not explained).

Positions count from the first letter of the chain named.

B1: 1-30 (antibody, V domains shown)
VH: EVQLLESGGGLVQPGGSLRLSCAASGFTFSSYAMTWVRQAPGKGLEWVSAISGSGGSTFYADSVKGRFTISRDNSKNTLYLQMNSLRAEDTAVYYCTRPPYGDYGDYWGQGTLVTVSS
VL: QSALTQPASVSGSPGQSITISCTGTSRDVGSYNLVSWYQQHPGKAPKLMIYEGTKRPSGVSNRFSGSKSGNTASLTISGLQAEDEADYYCCSYAGSRTPVVFGGGTKLTVL
Molecule B1 displayed an ELISA fold over background (fold over background) in test [1] of 1.7. Also, in test [2], the Kd (in general, the equilibrium constant for the complex coming apart) stood at 476000 nM. Besides, the S Trimer in test [3] amounted to 4.02 nM.

B2: 1-28 (antibody, V domains shown)
VH: EVQLLESGGGLVQPGGSLRLSCAASGFTFSSYGMSWVRQAPGKGLEWVSAISGSGGGTYYADSVKGRFTISRDNSKNTLYLQMNSLRAEDTAVYYCASSSSWQFDYWGQGTLVTVSS
VL: B1 VL with R27S, D28G, T54S, K55Q, R97S, P99H, V100Y
B2 yielded an ELISA fold over background (fold over background) in test [1] of 1.1. For the same molecule, the results for the Kd in test [4], in test [2] and in test [5] were 13.4 nM, 96.6 nM and 8.6 nM, respectively.

B3: 1-4 (antibody, V domains shown)
VH: EVQLLESGGGLVQPGGSLRLSCAASGFTFSSQAMSWVRQAPGKGLEWVSAISGSGGGTYYADSVKGRFTISRDNSKNTLYLQMNSLRAEDTAVYYCAKDRRFGEFDPWGQGTLVTVSS
VL: B1 VL with R27S, S31T, T54S, K55Q, R97S, T98S, P99F
B3 returned an ELISA fold over background (fold over background) in test [1] of 1.4. In addition, the Kd was determined as 6.6 nM in test [4], 129 nM in test [2] and 12.3 nM in test [5].

B4: 1-32 (antibody, V domains shown)
VH: B1 VH with T35Y
VL: QSALTQPASVSGSPGQSITISCTGTSSDVGGYNLVSWYQQHPGKAPKLMIYEGNKRPSGVSNRFSGSKSGNTASLTISGLQAEDEADYYCCSYAGSSTFPVVFGGGTKLTVL
Regarding B4, the ELISA fold over background (fold over background) in test [1] was found to be 1.5.

B5: 1-3 (antibody, V domains shown)
VH: B3 VH
VL: B1 VL with T25I, R27S, R97S, T98S, P99F
As for B5, the ELISA fold over background (fold over background) in test [1] stood at 1.8. The Kd in test [4] amounted to 423 nM; in test [2], 5310 nM; in test [5], 10 nM.

B6: 1-31 (antibody, V domains shown)
VH: B1 VH with T35N
VL: B1 VL with R27S, S31K, T54S, K55Q
In test [1], B6 gave an ELISA fold over background (fold over background) of 1.3. In test [3], this molecule had a S Trimer of 0.8 nM.

Source of the values: patent publication US20210395344A1.
